Results from a protein production outcome set (Wang et al. 2014).

Experiment: label from the status in PepcDB records
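Note: failed if final PepcDB status was selected cloned or expressed and not failed if soluble or beyond.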

| Sequence | protein production |
| --- | --- |
| MSDNAKHHRDGHLVASGLQDRAARTPQHEGFLGPDRPWHLSFSLLLAGSFVLFSWWAFDYAGSGANKVILVLATVVGMFMAFNVGGNDVANSFGTSVGAGTLTMKQALLVAAIFEVSGAVIAGGDVTETIRSGIVDLSGVSVDPRDFMNIMLSALSAAALWLLFANRMGYPVSTTHSIIGGIVGAAIALGMVSGQGGAALRMVQWDQIGQIVVSWVLSPVLGGLVSYLLYGVIKRHILLYNEQAERRLTEIKKERIAHRERHKAAFDRLTEIQQIAYTGALARDAVAANRKDFDPDELESDYYRELHEIDAKTSSVDAFRALQNWVPLVAAAGSMIIVAMLLFKGFKHMHLGLTTMNNYFIIAMVGAAVWMATFIFAKTLRGESLSRSTFLMFSWMQVFTASGFAFSHGSNDIANAIGPFAAILDVLRTGAIEGNAAVPAAAMVTFGVALCAGLWFIGRRVIATVGHNLTTMHPASGFAAELSAAGVVMGATVLGLPVSSTHILIGAVLGVGIVNRSTNWGLMKPIVLAWVITLPSAAILASVGLVALRAIF | failed |
| MSDNALTSSRRFGGIARLYGDSALAHFSQAHVCVVGVGGVGSWAVEALARTGIGRLTLIDLDNVAESNVNRQLHALTGDFGKAKVTALRERITQINPQCEVFEIEDFVTEDNLPEYFGKGFDFVIDAIDQVRVKAAMAAYFVERKQPFVLSGGAGGQKNPALIQTADLSRVTHDPLLANLRYTLRKRYGFSRDTKANMRVPCVYSTENIVPPQSREACSADAAPQGLSCAGYGASMLVTASFGLYCAQAAVEHIADKKLEHHHHHH | not failed |
| MSDPAIAVLPYGMKLGPALSGLPLDQVNWPLGCPERLVGKTLGDLGAGDHLLVYPRTGTHFQLSRGTRARISLIMAEPAVIHAKHYALLRVTWRRFHRVLTFNQAAVDRLPNARLLLFGSTWVPEWQSLTPEKVAQCSLIASAKRDSTGHKLRHAVVDWVRASDQDVAVLGRGYQPFDSKADGLAPYRYSVVIENVQERNYFSEKLLDAVFCETVPIYWGCPNIADFVDTTAMILCTREEDIRRAVAEMSAEDYAARLPALRALKQQLAPYAAHEARAARMILDELLEHHHHHH | not failed |
| MSDQPRPTVIITGASSGVGLYATKALANRGWHVIMACRNLEKAEQAAKNLQIPPEAYTILHLDLSSLASVRGFVESFRALNRPLRALVCNAAVYYPLLKEPIYSVDGYEITVATNHLGHFLLINLLLEDLKNSPESDKRLVILGTVTANRKELGGKIPIPAPPDLGNLEGFEKGFKKPIAMINGKPFKSGKAYKDSKLCNMLTARELHRRFHESTGIVFNSLYPGCVADTPLFRHHFPLFQKLFPLFQKKITGGYVSQELAGERVAMVVADPEFRQSGVHWSWGLEHHHHHH | not failed |
| MSDRFVIWAPSMHNEPAAKCGYCHGNKGGNMDQLFALDSWAHRYMNKMDVVKIENCTIGSFVEHMDVATYDRMCNMGFRRSGKFLYKVDPLRNCCRLYTIRTAPQELNMTKELKKCISRFATRITSEDYCPAAVASSDFVGKIVNAEMNSKTFYTRFEPALYSEEKYHLFVKYQEKVHQDYNNSPKSFKRFLCDTPFGPEAVLGTQESWEQLNNWQRMKPGEKLKHMGPVHECYYYEGKLIAITVSDILPSGISSVYFIWDPDYSKWSLGKLSALRDLAIIQRTNLQYYYLGYYIEDCPKMNYKANYGAEVLDVCHSKYIPLKPIQDMISRGKLFVIGEEETKVTKELYLVDSETGRGEGFPTDNVVKYKNIAEEIYGVGGCAFKSANESALELKELYGIPYEEEDLDTIYHLKEHNGHAPNGIPNVVPGLLPLWELLDIMQSGKITDLEGRLFLFEIETEGIRPLINFYSEPPNVKKRICDVIRLFGFETCMKAVILYSEQM | failed |
| MSDRGASAPSLPDDWPAHPDPILALNRMGSFDWDLDAGLFHMDAQAHEVFDLRPEEYDGRPESLALRVPTAESRRMDTIVARAMKDGSENYGTYFRLRRRDGTLRWTHTQGYIRRDETGRPRRIIGIVRDATQ | failed |
| MSDSDAMTDPNAVSYSNAIVVLCTAPDEASAQNLAAQVLGEKLAACVTLLPGATSLYYWEGKLEQEYEVQLLFKSNTDHQQALLTYIKQHHPYQTPELLVLPVRDGDKDYLSWLNASLL | failed |
| MSDSKFLRGTLIVTLGTFLVKFLGMIYVFPFHALVGTEGGTLYTYGYIPYTIFLSIATAGVPLAVSKFVSKYNALGDYKTSRRMFRSGMVMMIVTGVLSFLVLYMTAPLFAEAMLGKQSIHNNVGEVTTIIRLVSFALIVVPAASLIRGYFQGHQSMGPTTVSQIIEQIIRIVFLLAGSFIVIKVLGGTVATAVGVATFAAFVSAVGALGVLIWYWLKRKKYLDQYLIEQTVPESTVSTVQLFKELFAYAIPYVVIGLTIPLYQQIDTLTFNSIMQAIGQGDIAERALGIFTMWTHKLIMIPVSLATAFSLTLVPAITKSFTEKQYRYLKLQITQTFQANMFLTLPAVVGISSLAYPIYTAFYDSDPLGGQVLMWYAPVALLFALFTVTAAILQGINQQKHAIIALIMGVILKFVCNVIFIRYFGTVGAILATAVGFLASVWYTNQQIKKYAHYSFGVVYKRTFQIAVLTLIMVVAVKLSQWILSFMISPDGRIGALITVAICAGIGGLVYGLLAIRTGVLERVFGGEALDKIQRKLGSRFKIKLKSRGA | not failed |
| MSDSKFLRGTLIVTLGTFLVKFLGMIYVFPFHALVGTEGGTLYTYGYIPYTIFLSIATAGVPLAVSKFVSKYNALGDYKTSRRMFRSGMVMMIVTGVLSFLVLYMTAPLFAEAMLGKQSVHSNIGEVTTIIRLVSFALIVVPAASLIRGYFQGHQSMGPTTVSQIIEQIIRIVFLLAGSFIVIKVLGGTVATAVGVATFAAFVSAVGALGVLIWYWLKRKKHLDQYLIEQTALESTVSTVQLFKELFAYAIPYVVIGLTIPLYQQIDTLTFNSIMQAIGQGDIAERALGIFTMWTHKLIMIPVSLATAFSLTLVPAITKSFTEKQYRYLKLQITQTFQANMFLTLPAVVGISSLAYPIYTAFYDSDPLGGQVLMWYAPVALLFALFTVTAAILQGINQQKHAIIALIMGVILKFVCNVIFIRYFGTVGAILATAVGFLVSVWYTNQQIKKYAHYSFGVVYKRTFQIAVLTLVMVVTVKLSQWILSFMISPDGRMGALITVAICAGIGGLVYGLLAIRTGVLERVFGGEALEKIQRKLGNRFKIKLKSKGA | failed |
| MSDSWARSPSLSGYARQEGKFRVAIGAPRGDIPGQGDSSMSTQTAVLKKDITPQGSDYEIVRRAIEKISLDYRDQPSLEELAEEVGETPTGLQKLFTRWAGLSPKAFLQAVTLDHARRLLDSGMPLLETSFELGMSGPGRLHDLFVTHEAMSPGDYKTRGAGLTIRYGYHASPFGTALIMATDRGLAGLAFSDPGEERAAFADMSSRWPNAIYVEDLAATGPYAARIFDPTLWRPDQPLHVVMIGTDFQVRVWEALLQIPMGKARTYSSIAASIGAPSASRAVGAANGANPLSFVVPCHRAIGKSGDLTGYHWGLTRKRAILGWEAGQVSS | failed |
| MSDTGNYLGPFLVNDFGDRYLYQVNRNAFNSIGSDSLYASTYGESLFAEYQLNIIIGTDSGLFPTYVVNKGIPSGSRYLFIELPEVIERLSEEGILKELPPEVIIATPDTWEEIATDLQINEYVFIDAVRVNESIASSDANLPEYRDISWNINLNVRTLVHETHASINCTQYILRQLENLAENRVAFSRTLVDTFKGRTAVILAGGPSLREALPWVRENRDRLVLIAVSRISKILQSEQIVPHLVATVDPQKVSFEVSREMLYFADMEESPVLVSSYHASPLLVGQWGGRSAYTDSLFPWSTPLNIETHLYTGPTVSNYALSIAMNMGCETIVLAGVDLCFSREGHTHAAGSAENKVGPDLGQLSPRIETNGGWLADTNHGYAHSLEILKLQAELAVSKGHRLYNISLGAAKIPLIEYRPPSEIDLPEDTISTSALIDKYLPPPTSKARLSHYRKIKKELERAQHKFKEILSLSQEALECTDGLFGRNGKERSFRHKVQMDKIERKLDRRYGDFSLLVKQFGLKKFLSILRTPKEEQEWTDEQIEKATRDYYQAYMAGTIQLLAVTNSALSRIEARIEEEKSSPDCDLFISQWLRDGQPGRGRFWLRNHPVTAQCLSEAILGKFRELDDQFTHLMTDEQTIRMELLEKGYDLKHIRSKARLLFRRGEREELEAMAAGIASHPDREKAEPYLYFINGLIAELQQEPNRAIECYQHLLVDPPHPTTEDALRQIASLAIAGNDVENALLALECLSRMSPAYLSPYGEILKALGRYDEAFDAFNRYLSIAPKDVGTLVTLGILCRDAGLADTARDLFARVLENDPTNRVALSQLEGLAAPSND | failed |
| MSDVMTLKKSDIYNSDGSVKHTAFIHDKKTGKANTLYLKPVQQDLLQYHDWLVQENINSEWLFPSASHHNRHITEKQFYKVMARVGDLLSINYHYLGTHTMRKTGAYRVYTQSNYNIGLVMHLLNHSSEVMTLTYLGLDHASRETMLDQIDFG | failed |
| MSEAERAGASRQDKSGRLLAGRYRLGDVLGRGGMGTVWRAEDETLGRTVAVKELRFPTSIDEDEKRRLITRTLREAKAIARIRNNSAVTVFDVVDEDNRPWIVMELVEGKSLAEAIREDGLLEPKRAAEVGLAILDVLRAAHREGILHRDVKPSNVLIAEDGRVVLTDFGIAQVEGDPSITSTGMLVGAPSYISPERARGHKPGPAADLWSLGGLLYASVEGVPPYDKGSAIATLTAVMTEPLEEPKNAGPLRSVIYGLLAKDPEQRLDDAGARAMLNEVLHAPQPKEPEPVDATRVVALPPVPEEGTGKGSSGGSGAKRGEEAADRFRGALRSVRKAAGAATASAAARAKSGGTDVSGGTGAAGAGTSSAGSSASASAPAPGKPGAAAVGKPNPSSAGKPGSSAAATPAGTGSGVGQGTAVGGGGRESAVVGSNSGPVKPSSGWPVVPEPDRPPRSVPRAPLTDVVPRRTLVIVAVVVVLAVLGVVLALTLGGDDGSSKDNKGSSDTKAAASSGTSSGTTAGSSGTPKAGGSGSGSGGTHTDSGSKDNTGTGSDEQETDDSSSAGTASGSGGSDDSGSGSGDSSVKTYKSSQGFSIGLPKGWKYQSTGAAGARFTGPDGQKLLVGWTTTPKDDPVADWKNQEQYMVRSQYKRIRIEQVDYRGWNTADWEFTYTEGGTKYRSIDRGFVVNAHQGYALMYTAKASEWDSDLRKDTWQTLAKTFQPKS | failed |
| MSEAIRRAEAIDFGPDAQDLLWLSQDPVAVFDAEDRLRAANPAYCATFGCDPAEAPSWRQIMRRNHAMRQGALIVTEDFEGWLAAAAASRGRVPFRAYEAALHDGRWIWITETTAPDGRMLVHATDVTRLRSESLALRSERDAAQRASWTDPLTGVPNRRFVMDHLERWLDQQPRHGTFGTHALAVMDLDRFKQVNDLYGHTAGDAVLVSFCRITTDSIRSVDLFGRFGGEEFVLFMPNCPLETAQARLERLQEALAVAVVSPDLPALRCTFSAGLVAMRRDKDVHHAIRRADRLLYRAKADGRACVRAEI | failed |
| MSEAKWLSLLGLAARARQLLTGEEQVVKAVQNGQVTLVILSSDAGIHTKKKLLDKCGSYQIPVKVVGNRQMLGRAIGKHERVVIGVKDAGFSRKLAALIDE | not failed |
| MSEALSDSGLPPVQRVVTGHDAHGRAVFKSEDVTPTRMIPSGDASFLLVWTTATVPADNNDETDGRQREAGLTLDGGSVIRVVDMLPGKESPMHRTNSIDYGIVLEGEIELELDDGAKRTVRQGGIIVQRGTNHLWRNTTDKPCRIAFILIEAPAYLHNGQPLPEDKPDHK | not failed |
| MSEAPHLTFDLDTPGVSTGHLVVPKGADCEALSLPVFSCNRGEGPSLLITGGNHGNELQGPILARRLVKWLPEAQRCGRIIIVPEINPLAVQAWTRNTPIDGKNLNRVFPGRSDGSVSERIADAISRLLLPVVDTVLDLHSFGPTWDCAPSIISHPIADIDQMTKTVSISKAFKLPVTLLWEHNETDGMFDTLVHRQGKTFICTEFGGGVVSAEALTIYEAGVRNGLIALGLVKGKAEYPTFRQQKTGQTLETTSSDQLKSPSPGIFEPRCSVMDEVEQGDVVGVLHPMGSLSAASIDIRAQSKSTVFAIRSAMYVQGNEEVAILARPLAR | not failed |
